# Reference: the supplement of paper PMC9876800
# Tested on: peptide library, one residue held at a place counted from the S/T acceptor
# Test: relative phosphorylation of the sub-library (ratio to the mean residue at this position); human; higher = residue favoured
# Method in brief: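 Relative sub-library phosphorylation is a ratio to the mean residue at the same position. Purified recombinant kinases were incubated under kinase-specific conditions with biotinylated degenerate peptide sub-libraries, each fixing one residue at one position around a central Ser/Thr, using 50 μM peptide and 50 μM ATP spiked with γ-32P-ATP for 90 min. Spots captured on streptavidin membranes were phosphorimaged and quantified by densitometry.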
# Sequence of NEK11, construct: Full length (Q8NG66 whole entry, looked up): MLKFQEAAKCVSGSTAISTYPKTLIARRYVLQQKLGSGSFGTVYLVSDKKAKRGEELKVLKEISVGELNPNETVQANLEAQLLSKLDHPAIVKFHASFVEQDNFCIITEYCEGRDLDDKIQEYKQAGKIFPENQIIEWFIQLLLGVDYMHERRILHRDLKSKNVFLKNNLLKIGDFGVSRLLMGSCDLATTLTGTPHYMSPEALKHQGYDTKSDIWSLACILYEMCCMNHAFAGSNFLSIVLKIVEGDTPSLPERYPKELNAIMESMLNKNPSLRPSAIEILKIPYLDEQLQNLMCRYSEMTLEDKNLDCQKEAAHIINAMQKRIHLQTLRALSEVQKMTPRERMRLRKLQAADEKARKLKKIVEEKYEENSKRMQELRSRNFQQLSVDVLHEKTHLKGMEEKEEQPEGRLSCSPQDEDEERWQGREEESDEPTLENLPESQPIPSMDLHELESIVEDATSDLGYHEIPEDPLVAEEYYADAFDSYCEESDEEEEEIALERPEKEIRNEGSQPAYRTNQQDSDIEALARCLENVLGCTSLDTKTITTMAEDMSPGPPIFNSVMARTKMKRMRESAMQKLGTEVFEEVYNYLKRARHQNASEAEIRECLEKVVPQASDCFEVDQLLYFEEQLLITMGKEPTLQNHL
substance,measurement,setting,value
"NEK11, construct: Full length (from UniProt Q8NG66)",relative phosphorylation,"A fixed, at +1",0.432
same,relative phosphorylation,"A fixed, at +2",0.613
same,relative phosphorylation,"A fixed, at +3",0.845
same,relative phosphorylation,"A fixed, at +4",0.834
same,relative phosphorylation,"A fixed, at -1",0.977
same,relative phosphorylation,"A fixed, at -2",1.38
same,relative phosphorylation,"A fixed, at -3",1.06
same,relative phosphorylation,"A fixed, at -4",0.887
same,relative phosphorylation,"A fixed, at -5",1.02
same,relative phosphorylation,"D fixed, at +1",0.25
same,relative phosphorylation,"D fixed, at +2",0.395
same,relative phosphorylation,"D fixed, at +3",0.499
same,relative phosphorylation,"D fixed, at +4",0.597
same,relative phosphorylation,"D fixed, at -1",0.64
same,relative phosphorylation,"D fixed, at -2",0.742
same,relative phosphorylation,"D fixed, at -3",0.568
same,relative phosphorylation,"D fixed, at -4",0.73
same,relative phosphorylation,"D fixed, at -5",0.677
same,relative phosphorylation,"E fixed, at +1",0.234
same,relative phosphorylation,"E fixed, at +2",0.349
same,relative phosphorylation,"E fixed, at +3",0.53
same,relative phosphorylation,"E fixed, at +4",0.606
same,relative phosphorylation,"E fixed, at -1",0.59
same,relative phosphorylation,"E fixed, at -2",0.579
same,relative phosphorylation,"E fixed, at -3",0.643
same,relative phosphorylation,"E fixed, at -4",0.659
same,relative phosphorylation,"E fixed, at -5",0.709
same,relative phosphorylation,"F fixed, at +1",2.35
same,relative phosphorylation,"F fixed, at +2",0.978
same,relative phosphorylation,"F fixed, at +3",1.48
same,relative phosphorylation,"F fixed, at +4",0.997
same,relative phosphorylation,"F fixed, at -1",0.918
same,relative phosphorylation,"F fixed, at -2",1.49
same,relative phosphorylation,"F fixed, at -3",1.22
same,relative phosphorylation,"F fixed, at -4",1.33
same,relative phosphorylation,"F fixed, at -5",1.18
same,relative phosphorylation,"G fixed, at +1",0.494
same,relative phosphorylation,"G fixed, at +2",0.664
same,relative phosphorylation,"G fixed, at +3",0.797
same,relative phosphorylation,"G fixed, at +4",0.876
same,relative phosphorylation,"G fixed, at -1",1.57
same,relative phosphorylation,"G fixed, at -2",1.28
same,relative phosphorylation,"G fixed, at -3",1.01
same,relative phosphorylation,"G fixed, at -4",1.2
same,relative phosphorylation,"G fixed, at -5",1.36
same,relative phosphorylation,"H fixed, at +1",0.625
same,relative phosphorylation,"H fixed, at +2",1.42
same,relative phosphorylation,"H fixed, at +3",0.962
same,relative phosphorylation,"H fixed, at +4",1.28
same,relative phosphorylation,"H fixed, at -1",1.1
same,relative phosphorylation,"H fixed, at -2",0.909
same,relative phosphorylation,"H fixed, at -3",0.976
same,relative phosphorylation,"H fixed, at -4",0.929
same,relative phosphorylation,"H fixed, at -5",1.11
same,relative phosphorylation,"I fixed, at +1",2
same,relative phosphorylation,"I fixed, at +2",0.549
same,relative phosphorylation,"I fixed, at +3",0.797
same,relative phosphorylation,"I fixed, at +4",0.497
same,relative phosphorylation,"I fixed, at -1",0.491
same,relative phosphorylation,"I fixed, at -2",0.542
same,relative phosphorylation,"I fixed, at -3",0.671
same,relative phosphorylation,"I fixed, at -4",0.724
same,relative phosphorylation,"I fixed, at -5",0.866
same,relative phosphorylation,"K fixed, at +1",0.563
same,relative phosphorylation,"K fixed, at +2",1.85
same,relative phosphorylation,"K fixed, at +3",1.3
same,relative phosphorylation,"K fixed, at +4",1.96
same,relative phosphorylation,"K fixed, at -1",1.67
same,relative phosphorylation,"K fixed, at -2",0.867
same,relative phosphorylation,"K fixed, at -3",1.12
same,relative phosphorylation,"K fixed, at -4",1.06
same,relative phosphorylation,"K fixed, at -5",0.901
same,relative phosphorylation,"L fixed, at +1",1.86
same,relative phosphorylation,"L fixed, at +2",0.787
same,relative phosphorylation,"L fixed, at +3",1.25
same,relative phosphorylation,"L fixed, at +4",0.805
same,relative phosphorylation,"L fixed, at -1",0.914
same,relative phosphorylation,"L fixed, at -2",0.975
same,relative phosphorylation,"L fixed, at -3",1.12
same,relative phosphorylation,"L fixed, at -4",0.945
same,relative phosphorylation,"L fixed, at -5",0.763
same,relative phosphorylation,"M fixed, at +1",2.27
same,relative phosphorylation,"M fixed, at +2",1.06
same,relative phosphorylation,"M fixed, at +3",1.2
same,relative phosphorylation,"M fixed, at +4",0.824
same,relative phosphorylation,"M fixed, at -1",1.42
same,relative phosphorylation,"M fixed, at -2",1.06
same,relative phosphorylation,"M fixed, at -3",1.4
same,relative phosphorylation,"M fixed, at -4",1.07
same,relative phosphorylation,"M fixed, at -5",1.13
same,relative phosphorylation,"N fixed, at +1",0.573
same,relative phosphorylation,"N fixed, at +2",1.06
same,relative phosphorylation,"N fixed, at +3",1.05
same,relative phosphorylation,"N fixed, at +4",1.11
same,relative phosphorylation,"N fixed, at -1",1.23
same,relative phosphorylation,"N fixed, at -2",1.42
same,relative phosphorylation,"N fixed, at -3",1.18
same,relative phosphorylation,"N fixed, at -4",1.08
same,relative phosphorylation,"N fixed, at -5",1.03
same,relative phosphorylation,"P fixed, at +1",0.479
same,relative phosphorylation,"P fixed, at +2",0.795
same,relative phosphorylation,"P fixed, at +3",0.931
same,relative phosphorylation,"P fixed, at +4",1
same,relative phosphorylation,"P fixed, at -1",0.558
same,relative phosphorylation,"P fixed, at -2",1.05
same,relative phosphorylation,"P fixed, at -3",0.971
same,relative phosphorylation,"P fixed, at -4",1.08
same,relative phosphorylation,"P fixed, at -5",0.927
same,relative phosphorylation,"Q fixed, at +1",0.605
same,relative phosphorylation,"Q fixed, at +2",0.78
same,relative phosphorylation,"Q fixed, at +3",0.885
same,relative phosphorylation,"Q fixed, at +4",1.27
same,relative phosphorylation,"Q fixed, at -1",0.942
same,relative phosphorylation,"Q fixed, at -2",0.944
same,relative phosphorylation,"Q fixed, at -3",0.983
same,relative phosphorylation,"Q fixed, at -4",1.06
same,relative phosphorylation,"Q fixed, at -5",0.893
same,relative phosphorylation,"R fixed, at +1",0.494
same,relative phosphorylation,"R fixed, at +2",1.93
same,relative phosphorylation,"R fixed, at +3",0.864
same,relative phosphorylation,"R fixed, at +4",1.02
same,relative phosphorylation,"R fixed, at -1",1.53
same,relative phosphorylation,"R fixed, at -2",0.991
same,relative phosphorylation,"R fixed, at -3",1.2
same,relative phosphorylation,"R fixed, at -4",1.12
same,relative phosphorylation,"R fixed, at -5",1.23
same,relative phosphorylation,"V fixed, at +1",0.926
same,relative phosphorylation,"V fixed, at +2",0.566
same,relative phosphorylation,"V fixed, at +3",0.965
same,relative phosphorylation,"V fixed, at +4",0.695
same,relative phosphorylation,"V fixed, at -1",0.605
same,relative phosphorylation,"V fixed, at -2",0.601
same,relative phosphorylation,"V fixed, at -3",0.696
same,relative phosphorylation,"V fixed, at -4",0.778
same,relative phosphorylation,"V fixed, at -5",0.863
same,relative phosphorylation,"W fixed, at +1",1.23
same,relative phosphorylation,"W fixed, at +2",1.02
same,relative phosphorylation,"W fixed, at +3",1.43
same,relative phosphorylation,"W fixed, at +4",1.42
same,relative phosphorylation,"W fixed, at -1",0.764
same,relative phosphorylation,"W fixed, at -2",1.1
same,relative phosphorylation,"W fixed, at -3",0.979
same,relative phosphorylation,"W fixed, at -4",1.31
same,relative phosphorylation,"W fixed, at -5",1.21
same,relative phosphorylation,"Y fixed, at +1",1.62
same,relative phosphorylation,"Y fixed, at +2",2.17
same,relative phosphorylation,"Y fixed, at +3",1.21
same,relative phosphorylation,"Y fixed, at +4",1.21
same,relative phosphorylation,"Y fixed, at -1",1.08
same,relative phosphorylation,"Y fixed, at -2",1.06
same,relative phosphorylation,"Y fixed, at -3",1.21
same,relative phosphorylation,"Y fixed, at -4",1.03
same,relative phosphorylation,"Y fixed, at -5",1.13
same,relative phosphorylation,"pThr fixed, at +1",0.998
same,relative phosphorylation,"pThr fixed, at +2",1.15
same,relative phosphorylation,"pThr fixed, at +3",1.06
same,relative phosphorylation,"pThr fixed, at +4",0.672
same,relative phosphorylation,"pThr fixed, at -1",0.94
same,relative phosphorylation,"pThr fixed, at -2",1.38
same,relative phosphorylation,"pThr fixed, at -3",1.37
same,relative phosphorylation,"pThr fixed, at -4",1.47
same,relative phosphorylation,"pThr fixed, at -5",1.17
same,relative phosphorylation,"pTyr fixed, at +1",0.509
same,relative phosphorylation,"pTyr fixed, at +2",0.51
same,relative phosphorylation,"pTyr fixed, at +3",0.848
same,relative phosphorylation,"pTyr fixed, at +4",0.63
same,relative phosphorylation,"pTyr fixed, at -1",1.11
same,relative phosphorylation,"pTyr fixed, at -2",0.973
same,relative phosphorylation,"pTyr fixed, at -3",1.42
same,relative phosphorylation,"pTyr fixed, at -4",0.98
same,relative phosphorylation,"pTyr fixed, at -5",1.27
